Substrate in the data set: CC(=O)SCCNC(=O)CCNC(=O)[C@H](O)C(C)(C)COP(=O)(O)OP(=O)(O)OC[C@H]1O[C@@H](n2cnc3c(N)ncnc32)[C@H](O)[C@@H]1OP(=O)(O)O
The experiment in a line: CPM fluorescence detection of released CoA-SH, initial rates. The data set is classed as biochemical, Escherichia coli. The note with it: malonyl-ACP 80 µM (about 40% pure; table note 75 µM), 20 mM phosphate, 50 mM KCl, 1 mg/ml BSA, pH 7.0, 30°C. The source says: CPM fluorescence detection of released CoA-SH, initial rates on FabH (β-ketoacyl-ACP synthase III; keto-acylsynthase III)

B1: FabH (β-ketoacyl-ACP synthase III; keto-acylsynthase III) (Escherichia coli K-12) (protein)
chain: MYTKIIGTGSYLPEQVRTNADLEKMVDTSDEWIVTRTGIRERHIAAPNETVSTMGFEAATRAIEMAGIEKDQIGLIVVATTSATHAFPSAACQIQSMLGIKGCPAFDVAAACAGFTYALSVADQYVKSGAVKYALVVGSDVLARTCDPTDRGTIIIFGDGAGAAVLAASEEPGIISTHLHADGSYGELLTLPNADRVNPENSIHLTMAGNEVFKVAVTELAHIVDETLAANNLDRSQLDWLVPHQANLRIISATAKKLGMSMDNVVVTLDRHGNTSAASVPCALDEAVRDGRIKPGQLVLLEAFGGGFTWGSALVRF
notes: purified by anion exchange, blue sepharose and S200 columns, as described previously; no tag mentioned
One may read the Km as the concentration of substrate that gives half-maximal velocity. Take B1: the Michaelis-Menten constant (Km) came to 60 ± 20 µM.

The values above are taken from PMC5023282, “A rapid fluorometric assay for the S-malonyltransacylase FabD and other sulfhydryl utilizing enzymes” (Journal of Biological Methods, 2016).
